Experimental data published in the Human Domainome abundance scans (Beltran et al. 2025).
± gives the uncertainty stated by the source.

B1: POU domain, class 3, transcription factor 2, residues 262 to 338; numbered along this chain, P20265 (parent)
chain: EDTPTSDDLEQFAKQFKQRRIKLGFTQADVGLALGTLYGNVFSQTTICRFEALQLSFKNMCKLKPLLNKWLEEADSS

Variants of: B1
Experiment: abundance fitness (aPCA) (normalised: wild type 0, dead -1); higher = more abundant; growth selection in yeast, the domain comes from the species named
Conditions: Homo sapiens
D75V showed an abundance fitness of -0.135 ± 0.031. D75C gave an abundance fitness of -0.161 ± 0.049. D75L gave an abundance fitness of -0.133 ± 0.034. Work on P4C yielded an abundance fitness of 0.108 ± 0.062. A74R gave an abundance fitness of -0.036 ± 0.029. Work on A74W yielded an abundance fitness of -0.172 ± 0.036. Variant A74P has an abundance fitness of -0.274 ± 0.068. K58Q gave an abundance fitness of 0.024 ± 0.042. Work on K58G yielded an abundance fitness of -0.033 ± 0.029. In the case of K58A, the abundance fitness is reported as -0.042 ± 0.036. Work on L32W yielded an abundance fitness of -0.015 ± 0.17. For D2F, the abundance fitness was -0.133 ± 0.073. With D2V the abundance fitness was -0.176 ± 0.03. In the case of D2T, the abundance fitness is reported as 0.039 ± 0.046. Variant D2K has an abundance fitness of -0.031 ± 0.051. With Y38H the abundance fitness was -0.029 ± 0.077. Y38S showed an abundance fitness of -0.012 ± 0.032. In the case of Y38C, the abundance fitness is reported as -0.065 ± 0.05. For Y38K, the abundance fitness was -0.234 ± 0.05. Work on Y38I yielded an abundance fitness of -0.298 ± 0.07. With L66E the abundance fitness was -0.637 ± 0.061. Variant L66R has an abundance fitness of -0.242 ± 0.029. In the case of L66I, the abundance fitness is reported as -0.071 ± 0.063. In the case of L66C, the abundance fitness is reported as -0.239 ± 0.05. In the case of L66M, the abundance fitness is reported as -0.015 ± 0.042. Variant L66S has an abundance fitness of -0.423 ± 0.041. Work on L71F yielded an abundance fitness of -0.699 ± 0.22. Variant L71S has an abundance fitness of -0.207 ± 0.075. With T45K the abundance fitness was 0.053 ± 0.038. With T45F the abundance fitness was -0.104 ± 0.063. T3C showed an abundance fitness of 0.009 ± 0.06. T3P gave an abundance fitness of -0.205 ± 0.054. In the case of T3I, the abundance fitness is reported as 0.094 ± 0.06. T3N showed an abundance fitness of -0.203 ± 0.05. T3E gave an abundance fitness of -0.218 ± 0.043. T3G gave an abundance fitness of -0.342 ± 0.03. With T3D the abundance fitness was -0.324 ± 0.06. In the case of T3Q, the abundance fitness is reported as -0.091 ± 0.045. Work on S56A yielded an abundance fitness of -0.345 ± 0.043. In the case of S56R, the abundance fitness is reported as -0.366 ± 0.034. For S56W, the abundance fitness was -0.801 ± 0.081. Variant S56L has an abundance fitness of -0.633 ± 0.06. In the case of S56N, the abundance fitness is reported as -0.145 ± 0.078. Work on Q27R yielded an abundance fitness of -0.201 ± 0.029. With Q27K the abundance fitness was -0.132 ± 0.053. Q27E showed an abundance fitness of -0.004 ± 0.039. Work on L9D yielded an abundance fitness of -0.497 ± 0.078. For L9W, the abundance fitness was -0.396 ± 0.037. Variant L9Y has an abundance fitness of -0.457 ± 0.083. For L9K, the abundance fitness was -0.606 ± 0.077. For S6K, the abundance fitness was 0.091 ± 0.033. Work on S6I yielded an abundance fitness of 0.011 ± 0.052. E73V gave an abundance fitness of -0.067 ± 0.073. With E73Q the abundance fitness was 0.159 ± 0.098. E73D showed an abundance fitness of 0.06 ± 0.1. In the case of E73P, the abundance fitness is reported as -0.416 ± 0.17. In the case of S76H, the abundance fitness is reported as 0.023 ± 0.064. Variant S76E has an abundance fitness of 0.002 ± 0.038. Variant S76D has an abundance fitness of 0.042 ± 0.048. With S76A the abundance fitness was 0.05 ± 0.031. With S76M the abundance fitness was -0.021 ± 0.045. E1M gave an abundance fitness of 0.05 ± 0.066. Work on E1I yielded an abundance fitness of -0.066 ± 0.17. With E1P the abundance fitness was 0.085 ± 0.28. Variant E1A has an abundance fitness of -0.108 ± 0.058. In the case of Q11I, the abundance fitness is reported as -0.063 ± 0.089. Q11Y gave an abundance fitness of -0.024 ± 0.063. Work on Q11T yielded an abundance fitness of -0.049 ± 0.046. For Q11K, the abundance fitness was 0 ± 0.047. Q11H showed an abundance fitness of 0.017 ± 0.073. For R19W, the abundance fitness was -0.379 ± 0.043. In the case of R19K, the abundance fitness is reported as 0.035 ± 0.051. Work on R19G yielded an abundance fitness of -0.308 ± 0.034. In the case of C61V, the abundance fitness is reported as -0.035 ± 0.03. In the case of C61M, the abundance fitness is reported as -0.088 ± 0.037. C61K gave an abundance fitness of -0.056 ± 0.053. P65G showed an abundance fitness of -0.108 ± 0.05. For P65A, the abundance fitness was -0.139 ± 0.094. P65L showed an abundance fitness of -0.375 ± 0.13. P65E showed an abundance fitness of -0.133 ± 0.072. Variant G35P has an abundance fitness of -0.612 ± 0.071. With G35N the abundance fitness was 0.008 ± 0.065. In the case of G35Y, the abundance fitness is reported as -0.155 ± 0.076. G35D showed an abundance fitness of -0.415 ± 0.06. For G35S, the abundance fitness was 0.037 ± 0.033. For G35L, the abundance fitness was -0.453 ± 0.039. G35H gave an abundance fitness of -0.06 ± 0.065. For N59F, the abundance fitness was -0.014 ± 0.086. For N59A, the abundance fitness was 0.007 ± 0.037. For N59K, the abundance fitness was -0.022 ± 0.039. N59P showed an abundance fitness of -0.559 ± 0.092. N59Q gave an abundance fitness of -0.001 ± 0.044. N59D showed an abundance fitness of 0.105 ± 0.06. F50R gave an abundance fitness of -0.886 ± 0.055. Work on F50P yielded an abundance fitness of -0.756 ± 0.085. With F50V the abundance fitness was -0.682 ± 0.049. In the case of F50K, the abundance fitness is reported as -0.711 ± 0.1. With E10V the abundance fitness was 0.038 ± 0.028. Variant E10D has an abundance fitness of -0.259 ± 0.057. N40H gave an abundance fitness of 0.06 ± 0.085. For N40Q, the abundance fitness was 0.069 ± 0.043. N40G gave an abundance fitness of 0.035 ± 0.032. Variant N40K has an abundance fitness of -0.016 ± 0.044. Variant F42T has an abundance fitness of -0.061 ± 0.042. In the case of F42A, the abundance fitness is reported as -0.012 ± 0.034. Variant F42P has an abundance fitness of -0.368 ± 0.062. With F42I the abundance fitness was -0.037 ± 0.085. In the case of E72N, the abundance fitness is reported as -0.094 ± 0.063. Work on E72F yielded an abundance fitness of -0.191 ± 0.066. For E72C, the abundance fitness was -0.042 ± 0.056. Variant E72Y has an abundance fitness of -0.217 ± 0.085. For E72Q, the abundance fitness was 0.003 ± 0.051. Work on L55F yielded an abundance fitness of -0.277 ± 0.063. For L55Q, the abundance fitness was -0.506 ± 0.064. Variant L55P has an abundance fitness of -0.586 ± 0.099. With L55V the abundance fitness was -0.573 ± 0.039. L67K showed an abundance fitness of -0.688 ± 0.18. With L67S the abundance fitness was -0.619 ± 0.13. Variant L67F has an abundance fitness of -0.399 ± 0.2. L67V gave an abundance fitness of -0.525 ± 0.099. In the case of K64D, the abundance fitness is reported as -1.06 ± 0.23. K64G showed an abundance fitness of -0.449 ± 0.037. Work on K64T yielded an abundance fitness of -0.118 ± 0.045. D7L gave an abundance fitness of -0.434 ± 0.31. For D7E, the abundance fitness was -0.087 ± 0.13. With D7W the abundance fitness was 0.143 ± 0.17. Work on L63T yielded an abundance fitness of -0.524 ± 0.061. Variant L63G has an abundance fitness of -0.796 ± 0.041. With L63K the abundance fitness was -0.749 ± 0.14. Variant L34E has an abundance fitness of -1.01 ± 0.15. V41C showed an abundance fitness of 0.036 ± 0.065. V41E gave an abundance fitness of 0.034 ± 0.038. Work on V41H yielded an abundance fitness of 0.039 ± 0.16. V41P gave an abundance fitness of -0.042 ± 0.069. For V41R, the abundance fitness was -0.023 ± 0.033. K14E showed an abundance fitness of 0.018 ± 0.081. Variant K14A has an abundance fitness of -0.008 ± 0.05. K14F gave an abundance fitness of -0.337 ± 0.21. Work on K14Q yielded an abundance fitness of 0.075 ± 0.098. In the case of R20A, the abundance fitness is reported as -1.05 ± 0.1. In the case of R20M, the abundance fitness is reported as -1.29 ± 0.3. R20V showed an abundance fitness of -0.728 ± 0.059. With R20S the abundance fitness was -0.694 ± 0.084. In the case of R20D, the abundance fitness is reported as -1.05 ± 0.24. R20N showed an abundance fitness of -1.09 ± 0.4. For R20G, the abundance fitness was -0.938 ± 0.065. With T46W the abundance fitness was -0.307 ± 0.039. For L23K, the abundance fitness was -0.332 ± 0.052. L23C gave an abundance fitness of -0.313 ± 0.053. In the case of L23S, the abundance fitness is reported as -0.345 ± 0.04. T26A showed an abundance fitness of -0.417 ± 0.045. Variant T26N has an abundance fitness of -0.392 ± 0.088. With T26V the abundance fitness was -0.797 ± 0.065. For T26L, the abundance fitness was -0.758 ± 0.085. With L37Y the abundance fitness was -0.157 ± 0.089. K22Y gave an abundance fitness of -0.3 ± 0.093. Work on W70F yielded an abundance fitness of -0.111 ± 0.068. W70K showed an abundance fitness of -0.814 ± 0.12. W70T showed an abundance fitness of -1.06 ± 0.18. For W70N, the abundance fitness was -0.358 ± 0.18. In the case of W70P, the abundance fitness is reported as -0.853 ± 0.11. Work on Q44L yielded an abundance fitness of -0.248 ± 0.039. In the case of A33W, the abundance fitness is reported as -0.021 ± 0.036. A33I showed an abundance fitness of -0.138 ± 0.075. With Q54F the abundance fitness was -0.933 ± 0.37. Variant Q54S has an abundance fitness of -0.157 ± 0.045. Work on K69L yielded an abundance fitness of -0.144 ± 0.092.
